Measured values reported in the nanobody polyreactivity screen of Harvey et al. (2022).

Assay: yeast display, Sf9 membrane polyspecificity reagent, FACS + sequencing; frameworks hold sequencing errors
Summary of the method: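 Sorting gates, low and high (top ~1%), were placed on anti-HA fluorescence to track expression and on streptavidin fluorescence to track reagent binding. A clone's polyreactivity label is taken from the gate it came out of. The reagent was 10% biotinylated, detergent-solubilized Sf9 membrane, applied for 1 hour at 4 °C to galactose-induced yeast display cells.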

Sequence	polyreactivity (PSR sort gate)
QVQLVESGGGLVQAGGSLRLSCAASGRTFSSYTMGWYIQAPGKEMELVAAISWRGGSTYYADSVKGRFTISSDNAKNTVYLQMNSLKPEDTAVYYCAARSYLTPDYYYWGQGTQVNVSS	high polyreactivity
QVQLVESGGGLVQARGSLRLSCAASGSILDYYVMGWYRQAPGKERELVAAIRGGGSTYYADSVKGRFTISRDNAKNTVYLQMNSLKPEDTAVYYCAKDSQTARDFDYWGQGTQVTVSS	low polyreactivity
QVQLVESGGGVVQAGGSLRLSCAASGSTFGRYAMGWYRQAPGKERELVAAISWSGGSTYYADSVKGRFTISRDNAKNTVYLQMNSLKPEDTAVYYCNKYWRGSSSRDDYWGQGTQVTLSS	high polyreactivity
QVQLVESGGGLVQEGGSLRVSCAASGIIFSSYVMGWYRQAPGKERELVAAISKSGARTSYADSVKGRFTISRDNAKNTVYLQMNSLKPEDTAVYYCAATFRLERPTSKHPRYDYWGQGTQVTVST	low polyreactivity
QVQLVESGGGLVQAGGSLRLSCAASGSTFWLYTMGCYRQAPVKERELVAAISTRGGSTYYADSVKGRFTISRDNAKNTVYVQMHSLKPEDTAVYYCAAYPTYGEYDYWGQGSQVTVSS	high polyreactivity
QVQLVESGGGLVQAGASHRLSCAASGRIFGGYAMGSDRQAPGKERELVAAISSRGGSTYYADSVKGRFTISRDNAKNTVYLLMNSLKPEETAVYYCAADGRVKGWGQGTQVTVSS	high polyreactivity
QVQLVESGGGLVQAGGSLRLSCAASGITFSVYAMGWYRQAPGKERELVAAINYDSGSTYYADSVKGRFTISRDNAKNTVYLQMNSLKPEDTAVYYCATDGVNPFYAFDYWGQGTQVTVSS	low polyreactivity
QVQLVESGGGLVHAGGILRLSCAASGFIFWSYAKGWYRQAPGKERELFAAIDLSGGSTYYADSVKGRFTISRDNAKNTVYLQLNSLKPEDTAVYYCNADGDTYAFTNSDSGFDYWGQGTQVTVSS	low polyreactivity
QVQLVESGGGLVQAGGSLRLSCAASGRTFRGNAMGWYRQAPGKERELVAAINWGVGSTYYADSVKGRFTISRDNAKNTVYLQMNSLKPEDTAVYYCATRSYRGRDGFGYWGQGTQVTVSS	high polyreactivity
QVQLVESGGGLVQAGGSLRLSCAASGRTFRKYAMGWYRQAPGKERELVAGITSIGGRTYYADSVKGRFTISRDNAKNTVYLQMNSLKPEDTAVYYCAAEPYGGGVKHSAYDYCGQGTQVTVSS	low polyreactivity
QVQHVESGGGLVQAGGSLRLSCAASGRIFDLYAMGWYRQAPGKERELVAAITSGSTYYADSVKGRFTISRDNAKNTVYLQMNSLKPEDTAVYYCAADLSYWRGGHSRNYWGQGTQVTVSS	low polyreactivity
QVQLVESAAGLVQAGGSLRLSCAASGRNFYYYAMGWYRQAPGKEREVVAAINWSGGGTYYADSVKGRFTISRDNAKNTVYLQMNSLKPEDTAVYYCAAGFRYRYYWGQGTQVTVSS	high polyreactivity
KVQLVESGGGLVQAGGSLRLSCAASGRTFGDYAMGWSRQAPGKEREWVARISWDGGSTYYADSVKGRFTISRDNAKNTVYLQMNSLKPEDTAGYYCYSKSDYWGQGTQVTVSS	low polyreactivity
QVQLVESGGGLVQAGGSLRLSCAASGRIFGYNAMGWYRPAPGNERELVAAISWSGGNTYYADSVKGRFTISRDHAKNTVYLQMNSLKPEDTAVYYCNASPYRYRPSEYDYWGQGTQVTVSS	high polyreactivity
QVQLVESGGGLVQAGGSLRLSCAASGRTFGWNAMGWYRQAPGKERELVAGITTSGGTTYADSVKGRFTISRDNAKNTVYLQMNSLKPEDTAVYYCAAYVIGPDQFIYDYWGQGTQVTVSS	low polyreactivity
QVQRVESGRGLVQAGGSLRLSCAASGRTFRINAMGWYRQSPGKERELVASINSGGRTYYADSVKGRFTISRDNAKNTVYLQMNSLKPEDTAVYYCAAAGGRTGDYWGQGTQVTGSS	high polyreactivity
QVQLVESGGGLVQAGGSLRLSCAASGYTFYVYAMGWYRQAPGKERELVAAIRSGGTTYYADSVKGRFTISRDNAKNTVYLQMNSLKPEDTAVYYCAAVSSDYPFEGNYWGQGTQVTVSS	low polyreactivity
QVQLEESGGGLVQAGGRLRLTCAASGRTFFGYPMGWYRQAPGKERELVAAITSSGGRTYYADSVKGRFTISRDNPKNTDYLQMNSLKPEDTAVYYCAARRYRLSTPEFNYWGQGTQVTVSS	high polyreactivity
QVQLVESGGGLVQAGGSLRLSCAASGSTFTGYAMGWYRQAPGTERELVATINSGVSTYADSVKGRFTISRDNAKNTVYLQMNSLKPEDTAVYYCAADGLYYYQSGWIDAGYYTNGYWGQGTQVTVSS	low polyreactivity
QVQLVESGGGLVQAGGSLRLICAASGSTFYPYDMGWYRQSPGKEWELVATISSGVSTNYADSVKGRFTISRDNAKNTVYLQMNSLKPEDTAVYYCAVDYFIGDDDYWGQGTLVTVSS	low polyreactivity
QVQLVESGGGLVQAGGSLRLSCAASGLTFTSYVMGWYRQAPGKERELVAAIRWSGGRTYYADSVKGRFTISRDNAKNTVYLQMNSLKPEDTAVYYCAAQWYSGSHGYYYWGQGTQVTVSS	high polyreactivity
QVQLVESGGGLVQAGGSLRLRCAASGFTFRYYAMGWYRQAPGKERELVASTYYADSVKGRFTISRDNAKNTVYLQMNSLKPEDTAVYYCNVDGTSSSPFVQKHKEMDYWGQGTQVTVSS	low polyreactivity

Sequence	polyreactivity (PSR sort gate)
QVQLVESGGGLVQAGGSLRLSCAASGRIFRYYAMGWYRQAPGKERELVAGITIGGSTNYADSVKGRFTISRDNAKNTVYLLMISLKPEDTAVYYCAAVQHDENEYWGQGTQVTVSS	low polyreactivity
QVQLVESGGGLVQAGGSLRISCAASGSIFYYYDMGWYRQAPGKERELVASISRGGRTYYADSVKGRFTISRDNAMNTVYLQMNSLKPEDTAVYYCAAGYYIRYYGIMDYWGQGTQVTVSS	high polyreactivity
QVQLQESGGGLVQAGGSLRKSCAASGYIFTQYGMGWYRQGPGKERKFVATISYGGNTNYADSVKGRFTISRDNAKNTVYLQLNSLKPEDTAVYSCATKSVGYRKYWSGDIYDYWGQGTQVTVSS	low polyreactivity
QVQLVESGGGLVQAGGRLRLSCAASGRTLYRYAMGWYRQAPGKERELVATIRRSGGSTNYADSVKGRFTISRDNAKNTVYLQMNSLKPEDTAVYYCAAVSFKPEYYYWGQGTQVTVSS	high polyreactivity
QVQLVESGGGLVQAGGSLRLSCAASGFTFRDNAMGWYRQAPGKERELVAAISKSGGTTYYADSVKGRFTISRDNAKNTVYLQMNSLKPEDTAVYYCNAVNRYSGHSYYWGQGTQVTVSS	low polyreactivity
QVQLVESGGGLVQAGGSLRLSCAASGFTFSAYAMGWYRQAPGKERELVAAISTRGGSTRYADSVKGRFTISRDNAKNTVYLQMNSLKPADTAVYSCAADTRSFYRYDYWGQGTQVTVSS	high polyreactivity
QVQLVESGGGLVQAGGSLRLSCAASGSIFLYNAMGWYIQAPGKERELVAAISRSSTSTYYADSVKGRFTISRDNAKNTVYLQMNSLKPEDTAVYYCAARGRVTYWGQGTQVTVSS	high polyreactivity
QVQLVESGGGLVQAGGSLRLSCAASGSIFTDYALAWYRQAPGKERELVATITWSDATTYYTDSVKGRFTISRDNAKNTVYLQMNSLKPEDTAVYYCARRSRYSKGYDYWGQGTQVTVSS	low polyreactivity
QVQLVESGGGLVQAGGSLRLSCAASGNTFNSYAMGWYRQAPGKERELVAAIRWRGTSTYYADSVKGRFTISRDTAKNTVYLQMNSLKPEDTAVYYCAADVVRSNFYGTFLYDYDYWGQGTQVTVSS	low polyreactivity
QVQLVESGGGLVQAGGSLRLSCAASGITFGRNTMGWYRQAPGKERELVAAIDSGGNTYADSVKGRFTISRDNAKNTVYLQMNSLKPEDTAVYYCDVDGGEFSSYGYWGQGTLVTVSS	low polyreactivity
QVQLVESGGGLVQAGGSLRLSCAASGRTFRFYAMGWYRQAPGKEREFVASISRGGITYYADSVKGRFTISRDNAKNTVYLQMNSLKPEDTAVYYCAAGYPVLLERYSSFGGYYYWGHGTQVTVSS	high polyreactivity
QVQLVESGGGLVQAGGSLRLSCAASGRILPRNAMGWYRQAPGKERELVAAISWDGGSTYYADSVKGRFTISRDNAKNTDYLHMNSLKPEDTAVYYCATDYPSLHRGMDYWGQGTQVTVSS	low polyreactivity
QVQLVESGGGLVQAGGSLRLSCAASGRTFYLYTMGWYRQAPGKVSELVATISDGGGGTYYADSVKGRFTISRDNAKNTVYLQMNRLKPEDTAVYYCSADPIDVRDVPIPHVDFDYWGQGTQVTVSS	low polyreactivity
QVQLVESGGGLVQAGGSLRLSCAASGSTFAYYTMGWYRPGPGKEREMVAAIRGGGRTYYADSVKGRFTISRDNAKNTVYLQMNSLKPEDTAVYYCAATVYVTKGYGYWGQGTQVTVSS	high polyreactivity
QVQLVESGGGLVQAGGSLRLSCAASGNIRNYGMGCSRQAPGKERELVDAISSGGVRTYYADSVKGRFTLSRDNAKNTVYLQMNSLKPEETAVYYCAVASWYYLYPPGYRAITHDYWGQGTQVTVSS	high polyreactivity
QVQLVESGGGLVQAGGSLRLSCAASGSTFVRNAMGWYRQAPGKERELVAAISWSGGRTYYADSVKGRFTISRDNAKNTVYLQMNSLKPEDTAVYYCAARGYAGVDYDYWGQGTQVTVSS	high polyreactivity
QVQLVESGGGLVQAGGSLRLSCAASGSTVWWYAMGWDRQAPRKERELVAVITRSSDSTSYADSVKGRFTLSRDNAKNTVFLQMNSLKPEDTAVYYCAALYRSYRYEYYYWGQATQVTVSS	high polyreactivity
QVQLVESGGGLVQAGGSLRLSCAASGLIFKSYVMGWYRQSPGKERELVAGITGSGGTTYYADSVKGRFTISRDNAKNTVYLQMNSLKPEDTAVYYCAAVFETGAGGFYYTLQYDSWGQGTQVTVSS	high polyreactivity
QVQLVESGGGLVQAGGSLRLICAASGRTFVYNTMGWYRQAPGKERELVAAITDRGTSTYYADSVKGRFTISRDNAKNPVYLLLNSLNPEDTAVYYWAKDWLVTEFDYWGQGTQVTVSS	low polyreactivity
QDQLVESGGGLVQAGGSLRLSCAASGRIFGPYTMGWYRQAPGKEREFVAAISRSGDSTYYADSVKGRFTISRDNAKNTVYLQMNSLKPEDSAVYYCAAKYGTRLSAYYYWGQGTLVTVSS	high polyreactivity
QVQLVESGGGLVQAGGSLRLSCAASGITFNDYALGWYRQAPGKERELDAAIDWSGGRTYYADSVKGRFTISRDNAKNTVYLQMNSLKPEDTAVYYCAAVLYSRLFWYRLDYWGQGTQVTVSS	low polyreactivity
